The target of the experiment is fibrillar amyloid-beta (UniProt P05067). Put plainly: SPR.
Sequence of UniProt P05067 (P05067 672-713): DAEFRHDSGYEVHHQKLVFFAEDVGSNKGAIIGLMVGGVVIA

Regarding “Galectin-3 (from UniProt P17931 1-250) (natural protein)”, the Kd is 9 nM.

Source of the values: doi:10.1101/2025.03.17.643790.
